The results in this text go back to paper doi:10.1101/2023.11.21.568018 (bioRxiv, 2023).

The assay addresses phospho-NEDD8 (human (cDNA from HEK393T cells), UniProt Q15843 1-76, phosphoserine at 65). Description: crystal structure.

B1: human Parkin R0RBR (141-465) (domain or fragment)
chain: SIYNSFYVYCKGPCQRVQPGKLRVQCSTCRQATLTLTQGPSCWDDVLIPNRMSGECQSPHCPGTSAEFFFKCGAHPTSDKETSVALHLIATNSRNITCITCTDVRSPVLVFQCNSRHVICLDCFHLYCVTRLNDRQFVHDPQLGYSLPCVAGCPNSLIKELHHFRILGEEQYNRYQQYGAEECVLQMGGVLCPRPGCGAGLLPEPDQRKVTCEGGNGLGCGFAFCRECKEAYHEGECSAVFEASGTTTQAYRVDERAAEQARWEAASKETIKKTTKPCPRCHVPVEKNGGCMHMKCPQPQCRLEWCWNCGCEWNRVCMGDHWFDV
With B1, the binding result was “binds”.

B2: human Parkin R0RBR K211N (141-465) (domain or fragment)
chain: SIYNSFYVYCKGPCQRVQPGKLRVQCSTCRQATLTLTQGPSCWDDVLIPNRMSGECQSPHCPGTSAEFFFNCGAHPTSDKETSVALHLIATNSRNITCITCTDVRSPVLVFQCNSRHVICLDCFHLYCVTRLNDRQFVHDPQLGYSLPCVAGCPNSLIKELHHFRILGEEQYNRYQQYGAEECVLQMGGVLCPRPGCGAGLLPEPDQRKVTCEGGNGLGCGFAFCRECKEAYHEGECSAVFEASGTTTQAYRVDERAAEQARWEAASKETIKKTTKPCPRCHVPVEKNGGCMHMKCPQPQCRLEWCWNCGCEWNRVCMGDHWFDV
Consider B2, for which the binding result is reported as “binds”.
